# According to patent US20140371080:
# Assays:
# [1] = molecular target: EGFP-mOrange fusion (Aequorea victoria / Discosoma sp. (engineered)?) (UniProt P42212); settings: fluorescence imaging of halted RNA clusters on Illumina GAIIx; 1xPBS, 5 mM MgCl2, 0.01% Tween-20, room temp; published 5.1 nM
# [2] = system: EGFP (Aequorea victoria (engineered)?); settings: CITED Shui et al. 2012; p76 states 5 and 15 nM by ITC and EMSA respectively; cited from earlier work
substance,measurement,setting,value
"GFP aptamer (canonical, GFPapt)",Kd,[1],6 nM
same,Kd,[2],5.1 nM
